From PMC8563757, “NudCL2 is an autophagy receptor that mediates selective autophagic degradation of CP110 at mother centrioles to promote ciliogenesis” (Cell Research, 2021) come the findings set out here.

The target in the test is T1, His-CP110 (mouse, UniProt Q7TSH4 1-1004).
T1 construct: Full-length mouse CP110 cloned by RT-PCR into pFastBac-HT A (His-tag vector); also called purified His-CP110; source: insect Sf9 cells, Bac-to-Bac baculovirus expression system, purified
T1 sequence (looked up): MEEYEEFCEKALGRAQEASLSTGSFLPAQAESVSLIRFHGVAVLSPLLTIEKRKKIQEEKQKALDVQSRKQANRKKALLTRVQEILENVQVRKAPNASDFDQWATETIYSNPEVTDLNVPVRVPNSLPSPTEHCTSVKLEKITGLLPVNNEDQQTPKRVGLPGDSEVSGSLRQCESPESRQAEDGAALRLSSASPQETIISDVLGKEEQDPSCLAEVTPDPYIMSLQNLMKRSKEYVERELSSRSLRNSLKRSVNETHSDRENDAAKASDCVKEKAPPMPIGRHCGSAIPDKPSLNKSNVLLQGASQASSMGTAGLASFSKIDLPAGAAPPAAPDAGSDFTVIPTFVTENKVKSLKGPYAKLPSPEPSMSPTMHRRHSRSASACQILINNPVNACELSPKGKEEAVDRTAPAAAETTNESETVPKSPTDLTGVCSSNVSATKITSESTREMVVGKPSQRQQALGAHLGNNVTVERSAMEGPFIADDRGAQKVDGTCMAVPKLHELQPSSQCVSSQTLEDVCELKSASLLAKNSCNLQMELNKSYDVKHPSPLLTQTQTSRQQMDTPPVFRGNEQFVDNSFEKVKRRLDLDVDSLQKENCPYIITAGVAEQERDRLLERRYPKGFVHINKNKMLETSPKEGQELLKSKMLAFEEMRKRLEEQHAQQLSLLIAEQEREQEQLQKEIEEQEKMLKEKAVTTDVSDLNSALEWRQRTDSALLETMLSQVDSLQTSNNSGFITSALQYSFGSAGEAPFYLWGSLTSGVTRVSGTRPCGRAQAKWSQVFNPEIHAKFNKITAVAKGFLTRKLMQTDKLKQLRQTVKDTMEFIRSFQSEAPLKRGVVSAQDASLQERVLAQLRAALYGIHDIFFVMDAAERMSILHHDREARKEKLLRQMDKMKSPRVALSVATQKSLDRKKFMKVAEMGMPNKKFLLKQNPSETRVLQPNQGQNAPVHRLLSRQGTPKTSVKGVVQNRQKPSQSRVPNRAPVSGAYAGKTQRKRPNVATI
As to the kind of experiment: pull-down; GST pull-down of two purified proteins, incubated in PBS at 4 °C for 4 h, glutathione-agarose beads 2 h, western blotting. The following applies: both partners purified. (A western blot detects proteins with antibodies after separation by electrophoresis.)

B1: GST-NudCL2 (natural protein, mouse, UniProt Q9CQ48 1-157, looked up)
chain: MSAPFEERSGVVPCGTPWGQWYQTLEEVFIEVQVPPGTRAQDIQCGLQSRHVALAVGGREILKGKLFDSTIADEGTWTLEDRKMVRIVLTKTKRDAANCWTSLLESEYAADPWVQDQMQRKLTLERFQKENPGFDFSGAEISGNYTKGGPDFSNLEK
notes: Full-length mouse NudCL2 amplified from total cDNA by RT-PCR and cloned into pGEX5X-1; also called purified GST-NudCL2; source: Escherichia coli BL21, purified
Turning to B1, the binding result was “binds”.
